Assay results as given in US20180371065A1.
pEC50: −log10 of the molar value.

How the values were obtained:
[1] = biological target: human α-synuclein, full length, wild type (human) (UniProt P37840); assay: direct ELISA, 100 ng/ml coating of full length α-synuclein
[2] = biological target: human α-synuclein, full length, wild type (human) (UniProt P37840); assay: direct ELISA, 20 µg/ml coating of full length α-synuclein

pEC50 [1]: 10.00 | pEC50 [2]: 9.47
Substance: antibody Syn211 (Sigma)
